Measured values reported in article PMC8188212, “Multi‐Arm PEG/Peptidomimetic Conjugate Inhibitors of DR6/APP Interaction Block Hematogenous Tumor Cell Extravasation” (Advanced Science, 2021).
Square brackets hold non-standard residues; d marks the D form. Side chains are listed from the residue outwards. Ends that are not written are not given here. maleimide = maleimide: 4-arm PEG5k maleimide reacting with the C-terminal Cys thiol

Key:
[1] = test system: B16F10, 4T1, and CT26 lung metastasis models; assay: In vivo anti-metastasis assay, lung metastasis models; set-up: species or system mice
Procedure: 2 × 10^5 GFP‐B16F10 cells, 2 × 10^5 4T1, or 2 × 10^5 CT26 in 100 µL PBS were injected to the lateral tail vein of mice, respectively. The mice were intravenously injected with saline, AHP‐DRI‐12, and PEG‐tAHP‐DRI (0.2 µg g^–1 AHP‐DRI‐12) shortly before and 24 h after injection of B16F10. Each formulation was administered every 2 days for a total of seven times. After 15 days, mice were sacrificed and perfused with PBS and 4% paraformaldehyde. The hearts, livers, spleens, lungs, and kidneys were collected for H&E staining and immunohistochemistry analysis. Lung metastases were analyzed by quantitation of GFP and metastases nodes.

[2] = Biodistribution, ex vivo fluorescence imaging of organs; assay type: in vivo; conditions: Cy7-labeled peptides, intravenous, mice
Procedure: To quantify the biodistribution, mice were intravenously injected with Cy7‐labeled peptides. Mice were sacrificed at 6, 12, and 24 h after injection. All organs were harvested and subjected to ex vivo fluorescence imaging.

hERG potassium channel = hERG potassium channel (Homo sapiens, UniProt Q12809); assay: Whole-cell patch clamp recording of hERG current; assay type: cell-based; conditions: cisapride as positive control
Chain of hERG potassium channel (Q12809 whole entry): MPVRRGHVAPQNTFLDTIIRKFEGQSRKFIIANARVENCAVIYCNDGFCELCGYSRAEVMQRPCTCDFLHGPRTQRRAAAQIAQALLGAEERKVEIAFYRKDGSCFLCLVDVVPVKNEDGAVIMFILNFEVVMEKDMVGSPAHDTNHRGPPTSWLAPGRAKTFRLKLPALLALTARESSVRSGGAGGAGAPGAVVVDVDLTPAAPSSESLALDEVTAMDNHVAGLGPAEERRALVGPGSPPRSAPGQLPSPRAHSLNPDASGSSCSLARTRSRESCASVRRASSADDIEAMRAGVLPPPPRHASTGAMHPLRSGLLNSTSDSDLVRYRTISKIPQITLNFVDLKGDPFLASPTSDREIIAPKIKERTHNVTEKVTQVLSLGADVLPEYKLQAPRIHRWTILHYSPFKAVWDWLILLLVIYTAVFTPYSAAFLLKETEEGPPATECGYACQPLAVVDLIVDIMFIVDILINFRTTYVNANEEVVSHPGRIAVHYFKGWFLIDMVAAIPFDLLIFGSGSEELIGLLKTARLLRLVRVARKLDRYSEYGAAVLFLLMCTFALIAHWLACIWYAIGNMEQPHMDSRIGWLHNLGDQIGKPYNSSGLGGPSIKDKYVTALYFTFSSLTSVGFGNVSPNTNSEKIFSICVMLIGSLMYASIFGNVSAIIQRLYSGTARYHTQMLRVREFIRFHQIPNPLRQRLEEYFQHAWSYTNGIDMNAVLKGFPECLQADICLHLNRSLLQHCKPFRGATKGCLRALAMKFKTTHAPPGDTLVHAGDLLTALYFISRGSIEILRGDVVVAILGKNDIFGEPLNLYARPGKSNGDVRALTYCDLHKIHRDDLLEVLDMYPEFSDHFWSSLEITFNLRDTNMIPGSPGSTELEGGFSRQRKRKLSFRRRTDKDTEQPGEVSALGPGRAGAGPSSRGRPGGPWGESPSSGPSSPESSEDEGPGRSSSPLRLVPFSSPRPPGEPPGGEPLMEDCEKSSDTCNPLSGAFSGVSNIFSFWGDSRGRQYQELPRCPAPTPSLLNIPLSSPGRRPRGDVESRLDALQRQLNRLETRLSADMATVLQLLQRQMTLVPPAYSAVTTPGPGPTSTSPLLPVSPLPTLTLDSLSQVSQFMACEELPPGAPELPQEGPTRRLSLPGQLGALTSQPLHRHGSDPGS
Procedure: In addition, some common adverse effects suffered by frequently used medications were also evaluated. The whole‐cell patch clamp recording technique was used to record the whole‐cell hERG‐potassium to measure the cardiac toxicity of peptidomimetic agents on hERG potassium channel by utilizing cisapride as positive control (Figure 6E; Figure S10, Supporting Information). […] Meanwhile, the blood biochemical indexes of ligand‐treated mice sacrificed on day 2 or day 15 were tested to examine the influences of peptidomimetic agents to liver and kidney (Figure S11, Supporting Information).

[3] = test system: TCs over HUVECs monolayer; assay: Transendothelial migration of TCs over HUVEC monolayer; assay type: cell-based, human; conditions: AHP-DRI-12 and PEG-tAHP-DRI 1 × 10^−6 M (AHP-DRI-12), Nec-1 30 × 10^–6 M, zVAD 100 × 10^–6 M; 48 h; compared with control; n = 3
Procedure: HUVECs (1 × 10^5) in DMEM were added into 24‐well plate transwell upper chambers and the medium was changed every 2 days. Using the EVOM resistance tester, the transendothelial resistance was measured daily. When the TEER resistance value was >200 Ωcm^2, the cells grew into a monolayer of tight connection. 2 × 10^5 GFP‐TCs were added into upper chambers. One milliliter DMEM containing 10% FBS was added into lower chambers overnight. AHP‐DRI‐12 and PEG‐tAHP‐DRI (1 ×10^–6 M AHP‐DRI‐12), Nec‐1 (30 × 10^–6 M), and zVAD (100 × 10^–6 M) were added in upper chambers, respectively. After incubation for 48 h, cells in lower chambers were observed by fluorescence microscope.^[ ^56 ^]

HUVECs = assay: MTT cytotoxicity assay; assay type: cell-based, human; conditions: up to 10 × 10^−6 M, 24, 48, 72 h, n = 3
Procedure: To evaluate the cytotoxicity of DR6‐targeting peptides, MTT assay was conducted. Briefly, 4 × 10^3 HUVECs were added in 96‐well plates and grown overnight before incubating with AHP‐DRI‐12 and PEG‐tAHP‐DRI (0.1 × 10^–6, 1.0 × 10^–6, 10 ×10^–6 M AHP‐DRI‐12). After incubating for 24, 48, and 72 h, 100 µL of 0.5 mg mL^–1 MTT was added to each well, and the plates were incubated at 37 °C for 4 h. After the removal of the supernatant, the precipitate was dissolved in 150 µL dimethyl sulfoxide, and the absorbance was measured at 490 nm using a microplate reader.

[4] = Peptides stability in 25% rat serum; assay type: in vitro ADME; conditions: FITC-labeled peptides, 25% fresh rat serum, 37 °C, 0, 4, 8, 24, 48, 96 h; acetonitrile/0.1% TFA precipitation; microplate reader; n = 3
Procedure: FITC‐labeled peptides were added into 25% rat serum and incubated at 37 °C. After incubation at 0, 4, 8, 24, 48, 96 h, 100 µL solution was collected and acetonitrile (containing 0.1% TFA) was added to precipitate the protein in the serum. The serum samples were incubated at 4 °C for 20 min and then centrifuged at 12 000 rpm for 10 min. A total of 20 µL supernatant was measured by a microplate reader.

[5] = DLS analysis of size in solution; assay type: physicochemical
Procedure: AHP‐DRI‐12 with additional Cys residue at the C‐terminal and 4‐arm PEG5k maleimide was dissolved in PBS (0.1 M, pH = 8) at a molar ratio of 8:1. The reaction mixture was stirred for 4 h at room temperature and then dialyzed in a Slide‐A‐Lyzer dialysis cassette (Thermo Fisher Scientific, Shanghai, China) (MWCO: 3500 Da) against water. The dialysate containing the pure product was lyophilized. The products were confirmed by nuclear magnetic resonance (^1H NMR) spectra using a Bruker Avance 500 (500 MHz) spectrometer (Beijing, China).

[6] = test system: RIPK1, RIPK3, MLKL and their phosphorylated states in HUVECs; assay: Western blot of necroptosis pathway proteins; assay type: cell-based, human; conditions: 24 h, 0.1, 1.0, 10 × 10^–6 M AHP-DRI-12
Procedure: Western blot assay was conducted to examine the expression level of RIPK1, RIPK3, MLKL, and their phosphorylated states that were downstream protein of DR6. Briefly, 5 × 10^5 HUVECs were added in six‐well plates and grown overnight. Next day, HUVECs were treated with TSZ, AHP‐DRI‐12, and PEG‐tAHP‐DRI (0.1 × 10^–6, 1.0 × 10^–6, 10 × 10^–6 M AHP‐DRI‐12), respectively. After incubating for 24 h, HUVECs were washed with PBS, harvested, and mixed with 150 µL cell lysate buffer/well (Beyotime, China). Protein samples were collected after incubation at 4 ℃ for 30 min. Protein samples were centrifuged at 4 °C and 12 000 rpm for 10 min, and the supernatant was collected as samples. Each sample was then separated by 12% SDS–PAGE, followed by transferring to polyvinylidene difluoride membranes. Finally, samples were incubated with antibodies. HRP‐labeled secondary antibodies were added and measured using an imaging system.

[7] = DAPI staining of lung sections after injection of FITC-labeled ligand; assay type: in vivo; conditions: FITC-labeled ligand intravenously, lungs isolated 30 min later, confocal
Procedure: FITC‐labeled AHP‐DRI‐12 and PEG‐tAHP‐DRI were injected intravenously and 30 min later, lungs were isolated to prepare frozen sections. The frozen sections were stained with DAPI. The representative images were taken on a confocal microscope.

[8] = B16F10 tumor-bearing mice, 15 days

## PEG-tAHP-DRI: tetra-(D-retro-inverso isomer of AHP-12) substitued 4-arm PEG5k ([dP][dT][dT][dA][dD][dI][dT]C([maleimide-4‑arm PEG5k]); also: four peptides on one 4-arm PEG5k)
[1]; [8]
  necroptosis in lungs, p-RIPK1 immunohistochemical analysis: dramatic decrease of necroptosis in lungs
  pulmonary vessel integrity, CD31 staining: remained relatively intact and orderly
[1]; GFP-B16F10 model, compared with vehicle-treated and AHP-DRI-12-treated mice, n = 6
  expression level of GFP mRNA in lungs: less expression level of GFP mRNA in lungs
[1]; intravenous, 0.2 µg g^–1 AHP-DRI-12, every 2 days, seven times, lungs after 15 days
  pulmonary metastasis nodules: least amount of pulmonary metastasis nodules
[1]; intravenous, 0.2 µg g^–1 AHP-DRI-12, 15 days, n = 6
  metastatic loci in lungs, H&E staining: less and smaller metastatic loci
[2]
  distribution in kidney and liver after 12 h: much higher distribution in kidney and liver
  distribution intensity within 6 h, compared with AHP-DRI-12: much lower distribution intensity
  organ accumulation within 6 h after injection: accumulate mostly in kidney and slightly in liver
hERG potassium channel
  inhibitory effect on hERG channels: no significant inhibitory effect
[3]
  TCs transendothelial migration: significantly attenuated TCs transendothelial migration
HUVECs
  HUVECs cell viability: remained essentially unchanged
[4]
  degradation in 25% rat serum (proteolytic stability): obviously enhanced proteolytic resistance
[5]
  size distribution in solution (hydration dynamic radius, DLS): ≈ 10 nm
[6]
  native activation of necroptosis pathway (expression levels of p-RIPK1, p-RIPK3, p-MLKL): could not initialize necroptosis pathway
[7]
  binding potency and proteolytic stability in vivo by FITC fluorescence on lung frozen sections: best proteolytic stability
